Reference: patent US20230242651A1 (published 2023)

What was measured:
[1] = target: T1, human interleukin-23 receptor (IL23R) (human, UniProt Q5VWK5 24-355, limits assumed); test: SPR, scFv
T1 construct: also called human IL23R
T1 sequence (looked up): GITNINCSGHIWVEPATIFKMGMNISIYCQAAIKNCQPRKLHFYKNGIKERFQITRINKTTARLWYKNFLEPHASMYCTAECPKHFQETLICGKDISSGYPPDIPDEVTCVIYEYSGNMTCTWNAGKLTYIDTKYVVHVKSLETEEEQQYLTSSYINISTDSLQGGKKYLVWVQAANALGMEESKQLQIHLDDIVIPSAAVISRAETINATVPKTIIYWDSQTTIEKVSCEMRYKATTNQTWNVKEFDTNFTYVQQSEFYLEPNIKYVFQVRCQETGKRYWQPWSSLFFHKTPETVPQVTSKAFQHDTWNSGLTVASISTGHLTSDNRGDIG
Summary of the method: (§1)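 Humanized rabbit variable domains were made as single-chain variable fragments (scFv) on consensus germline framework pairs, with or without a λ-cap (Vκ framework IV replaced by a Vλ germline sequence). They were expressed in E. coli as inclusion bodies, solubilized and refolded in a generic refolding buffer. Affinity for human IL23R was measured by surface plasmon resonance, giving rate constants and dissociation constant, or the λ-capped over uncapped dissociation-constant ratio.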

[2] = target: T1, human interleukin-23 receptor (IL23R); test: SPR, scFv (summary table)
Summary of the method: as §1

[3] = target: T1, human interleukin-23 receptor (IL23R); test: SPR; KD of the capped scFv over KD of its uncapped counterpart
Summary of the method: as §1

B1: Vκ1/VH3 consensus λ-capped, human IL23R specific scFv (scFv)
scFv: DIQMTQSPSSLSASVGDRVTITCQASENIYSFLAWYQQKPGKAPKLLIYSASKLAAGVPSRFSGSGSGTDFTLTISSLQPEDFATYYCQQTNRYSNPDIYNVFGGGTKLTVLGGGGGSGGGGSGGGGSGGGGSEVQLVESGGGLVQPGGSLRLSCAASGIDFNSNYYMCWVRQAPGKGLEWVSCIYVGSHVNTYYANWAKGRFTISRDNSKNTLYLQMNSLRAEDTAVYYCATSGSSVLYFKFWGQGTLVTVSS
notes: scFv VL-linker-VH, made in E. coli; also called Vκ1VH3 capped
With B1 the Kd [1] was 0.0137 nM, the koff [1] was 5.43e-05 s⁻¹ and the kon [1] was 3.95e+06 M⁻¹ s⁻¹. The Kd [2] was 0.0137 nM and the “Ratio (capped/uncapped) of KD” value [3] was 0.4.

B2: Vκ2/VH6 consensus λ-capped, human IL23R specific scFv (scFv)
scFv: DIVMTQSPLSLPVTPGEPASISCQASENIYSFLAWYLQKPGQSPQLLIYSASKLAAGVPDRFSGSGSGTDFTLKISRVEAEDVGVYYCQQTNRYSNPDIYNVFGGGTKLTVLGGGGGSGGGGSGGGGSGGGGSQVQLQQSGPGLVKPSQTLSLTCAISGIDFNSNYYMCWIRQSPGRGLEWLGCIYVGSHVNTYYANWAKGRITINPDTSKNQFSLQLNSVTPEDTAVYYCATSGSSVLYFKFWGQGTLVTVSS
notes: scFv VL-linker-VH, made in E. coli; also called Vκ2VH6 capped
B2 showed a Kd [1] of 0.887 nM, a koff [1] of 0.000475 s⁻¹ and a kon [1] of 535000 M⁻¹ s⁻¹. The Kd [2] was 0.887 nM and the “Ratio (capped/uncapped) of KD” value [3] was 0.3.

B3: Vκ2/VH3 consensus λ-capped, human IL23R specific scFv (scFv)
scFv: DIVMTQSPLSLPVTPGEPASISCQASENIYSFLAWYLQKPGQSPQLLIYSASKLAAGVPDRFSGSGSGTDFTLKISRVEAEDVGVYYCQQTNRYSNPDIYNVFGGGTKLTVLGGGGGSGGGGSGGGGSGGGGSEVQLVESGGGLVQPGGSLRLSCAASGIDFNSNYYMCWVRQAPGKGLEWVSCIYVGSHVNTYYANWAKGRFTISRDNSKNTLYLQMNSLRAEDTAVYYCATSGSSVLYFKFWGQGTLVTVSS
notes: scFv VL-linker-VH, made in E. coli; also called Vκ2VH3 capped
With B3 the Kd [1] was 0.0397 nM, the koff [1] was 7.77e-05 s⁻¹ and the kon [1] was 1.95e+06 M⁻¹ s⁻¹. For the same binder, the Kd [2] was 0.0397 nM and the “Ratio (capped/uncapped) of KD” value [3] was 1.7.

B4: Vκ1/VH5 consensus λ-capped, human IL23R specific scFv (scFv)
scFv: DIQMTQSPSSLSASVGDRVTITCQASENIYSFLAWYQQKPGKAPKLLIYSASKLAAGVPSRFSGSGSGTDFTLTISSLQPEDFATYYCQQTNRYSNPDIYNVFGGGTKLTVLGGGGGSGGGGSGGGGSGGGGSEVQLVQSGAEVKKPGESLKISCKGSGIDFNSNYYMCWVRQMPGKGLEWMGCIYVGSHVNTYYANWAKGQVTISADKSISTAYLQWSSLKASDTAMYYCATSGSSVLYFKFWGQGTLVTVSS
notes: scFv VL-linker-VH, made in E. coli; also called Vκ1VH5 capped
For B4, the Kd [1] was 0.398 nM, the koff [1] was 0.000671 s⁻¹ and the kon [1] was 1.69e+06 M⁻¹ s⁻¹. The Kd [2] was 0.398 nM and the “Ratio (capped/uncapped) of KD” value [3] was 1.7.

B5: Vκ2/VH4 consensus λ-capped, human IL23R specific scFv (scFv)
scFv: DIVMTQSPLSLPVTPGEPASISCQASENIYSFLAWYLQKPGQSPQLLIYSASKLAAGVPDRFSGSGSGTDFTLKISRVEAEDVGVYYCQQTNRYSNPDIYNVFGGGTKLTVLGGGGGSGGGGSGGGGSGGGGSQVQLQESGPGLVKPSETLSLTCTVSGIDFNSNYYMCWIRQPPGKGLEWIGCIYVGSHVNTYYANWAKGRVTISVDTSKNQFSLKLSSVTAADTAVYYCATSGSSVLYFKFWGQGTLVTVSS
notes: scFv VL-linker-VH, made in E. coli; also called Vκ2VH4 capped
Work on B5 yielded a Kd [1] of 0.0481 nM, a koff [1] of 0.000112 s⁻¹ and a kon [1] of 2.33e+06 M⁻¹ s⁻¹. The Kd [2] was 0.0481 nM and the “Ratio (capped/uncapped) of KD” value [3] was 0.4.

B6: Vκ2/VH5 consensus λ-capped, human IL23R specific scFv (scFv)
scFv: DIVMTQSPLSLPVTPGEPASISCQASENIYSFLAWYLQKPGQSPQLLIYSASKLAAGVPDRFSGSGSGTDFTLKISRVEAEDVGVYYCQQTNRYSNPDIYNVFGGGTKLTVLGGGGGSGGGGSGGGGSGGGGSEVQLVQSGAEVKKPGESLKISCKGSGIDFNSNYYMCWVRQMPGKGLEWMGCIYVGSHVNTYYANWAKGQVTISADKSISTAYLQWSSLKASDTAMYYCATSGSSVLYFKFWGQGTLVTVSS
notes: scFv VL-linker-VH, made in E. coli; also called Vκ2VH5 capped
With B6 the Kd [1] was 0.476 nM, the koff [1] was 0.000715 s⁻¹ and the kon [1] was 1.5e+06 M⁻¹ s⁻¹. For the same binder, the Kd [2] was 0.476 nM and the “Ratio (capped/uncapped) of KD” value [3] was 1.6.

B7: Vκ2/VH1A consensus λ-capped, human IL23R specific scFv (scFv)
scFv: DIVMTQSPLSLPVTPGEPASISCQASENIYSFLAWYLQKPGQSPQLLIYSASKLAAGVPDRFSGSGSGTDFTLKISRVEAEDVGVYYCQQTNRYSNPDIYNVFGGGTKLTVLGGGGGSGGGGSGGGGSGGGGSQVQLVQSGAEVKKPGSSVKVSCKASGIDFNSNYYMCWVRQAPGQGLEWMGCIYVGSHVNTYYANWAKGRVTITADESTSTAYMELSSLRSEDTAVYYCATSGSSVLYFKFWGQGTLVTVSS
notes: scFv VL-linker-VH, made in E. coli; also called Vκ2VH1A capped
With B7 the Kd [1] was 0.0772 nM, the koff [1] was 0.000184 s⁻¹ and the kon [1] was 2.39e+06 M⁻¹ s⁻¹. For the same binder, the Kd [2] was 0.0772 nM and the “Ratio (capped/uncapped) of KD” value [3] was 0.3.

B8: Vκ1/VH2 consensus λ-capped, human IL23R specific scFv (scFv)
scFv: DIQMTQSPSSLSASVGDRVTITCQASENIYSFLAWYQQKPGKAPKLLIYSASKLAAGVPSRFSGSGSGTDFTLTISSLQPEDFATYYCQQTNRYSNPDIYNVFGGGTKLTVLGGGGGSGGGGSGGGGSGGGGSQVQLKESGPALVKPTQTLTLTCTFSGIDFNSNYYMCWIRQPPGKALEWLACIYVGSHVNTYYANWAKGRLTISKDTSKNQVVLTMTNMDPVDTATYYCATSGSSVLYFKFWGQGTLVTVSS
notes: scFv VL-linker-VH, made in E. coli; also called Vκ1VH2 capped
B8 was tested, and the Kd [1] was 0.0731 nM, the koff [1] was 0.000128 s⁻¹ and the kon [1] was 1.76e+06 M⁻¹ s⁻¹. The Kd [2] was 0.0731 nM and the “Ratio (capped/uncapped) of KD” value [3] was 0.3.

B9: Vκ3/VH4 consensus λ-capped, human IL23R specific scFv (scFv)
scFv: DIVLTQSPATLSLSPGERATLSCQASENIYSFLAWYQQKPGQAPRLLIYSASKLAAGVPARFSGSGSGTDFTLTISSLEPEDFAVYYCQQTNRYSNPDIYNVFGGGTKLTVLGGGGGSGGGGSGGGGSGGGGSQVQLQESGPGLVKPSETLSLTCTVSGIDFNSNYYMCWIRQPPGKGLEWIGCIYVGSHVNTYYANWAKGRVTISVDTSKNQFSLKLSSVTAADTAVYYCATSGSSVLYFKFWGQGTLVTVSS
notes: scFv VL-linker-VH, made in E. coli; also called Vκ3VH4 capped
B9 gave a Kd [1] of 0.123 nM, a koff [1] of 0.000288 s⁻¹ and a kon [1] of 2.35e+06 M⁻¹ s⁻¹. The Kd [2] was 0.123 nM and the “Ratio (capped/uncapped) of KD” value [3] was 0.9.

B10: Vκ1/VH4 consensus λ-capped, human IL23R specific scFv (scFv)
scFv: DIQMTQSPSSLSASVGDRVTITCQASENIYSFLAWYQQKPGKAPKLLIYSASKLAAGVPSRFSGSGSGTDFTLTISSLQPEDFATYYCQQTNRYSNPDIYNVFGGGTKLTVLGGGGGSGGGGSGGGGSGGGGSQVQLQESGPGLVKPSETLSLTCTVSGIDFNSNYYMCWIRQPPGKGLEWIGCIYVGSHVNTYYANWAKGRVTISVDTSKNQFSLKLSSVTAADTAVYYCATSGSSVLYFKFWGQGTLVTVSS
notes: scFv VL-linker-VH, made in E. coli; also called Vκ1VH4 capped
B10 gave a Kd [1] of 0.0455 nM, a koff [1] of 0.000191 s⁻¹ and a kon [1] of 4.2e+06 M⁻¹ s⁻¹. For the same binder, the Kd [2] was 0.0455 nM and the “Ratio (capped/uncapped) of KD” value [3] was 0.5.

B11: Vκ1/VH6 consensus λ-capped, human IL23R specific scFv (scFv)
scFv: DIQMTQSPSSLSASVGDRVTITCQASENIYSFLAWYQQKPGKAPKLLIYSASKLAAGVPSRFSGSGSGTDFTLTISSLQPEDFATYYCQQTNRYSNPDIYNVFGGGTKLTVLGGGGGSGGGGSGGGGSGGGGSQVQLQQSGPGLVKPSQTLSLTCAISGIDFNSNYYMCWIRQSPGRGLEWLGCIYVGSHVNTYYANWAKGRITINPDTSKNQFSLQLNSVTPEDTAVYYCATSGSSVLYFKFWGQGTLVTVSS
notes: scFv VL-linker-VH, made in E. coli; also called Vκ1VH6 capped
B11 was tested, and the Kd [1] was 0.245 nM, the koff [1] was 0.000349 s⁻¹ and the kon [1] was 1.42e+06 M⁻¹ s⁻¹. The Kd [2] was 0.245 nM and the “Ratio (capped/uncapped) of KD” value [3] was 1.

B12: Vκ3/VH5 consensus λ-capped, human IL23R specific scFv (scFv)
scFv: DIVLTQSPATLSLSPGERATLSCQASENIYSFLAWYQQKPGQAPRLLIYSASKLAAGVPARFSGSGSGTDFTLTISSLEPEDFAVYYCQQTNRYSNPDIYNVFGGGTKLTVLGGGGGSGGGGSGGGGSGGGGSEVQLVQSGAEVKKPGESLKISCKGSGIDFNSNYYMCWVRQMPGKGLEWMGCIYVGSHVNTYYANWAKGQVTISADKSISTAYLQWSSLKASDTAMYYCATSGSSVLYFKFWGQGTLVTVSS
notes: scFv VL-linker-VH, made in E. coli; also called Vκ3VH5 capped
Work on B12 yielded a Kd [1] of 0.864 nM, a koff [1] of 0.0013 s⁻¹ and a kon [1] of 1.5e+06 M⁻¹ s⁻¹. The Kd [2] was 0.864 nM and the “Ratio (capped/uncapped) of KD” value [3] was 1.6.
